Publication PMC3434800
Numbering of substitutions follows the chain as printed.

T1: Hel308 (ssHel308) wild type (Sulfolobus solfataricus PBL2025, UniProt D0KN27 8-715)
T1 sequence: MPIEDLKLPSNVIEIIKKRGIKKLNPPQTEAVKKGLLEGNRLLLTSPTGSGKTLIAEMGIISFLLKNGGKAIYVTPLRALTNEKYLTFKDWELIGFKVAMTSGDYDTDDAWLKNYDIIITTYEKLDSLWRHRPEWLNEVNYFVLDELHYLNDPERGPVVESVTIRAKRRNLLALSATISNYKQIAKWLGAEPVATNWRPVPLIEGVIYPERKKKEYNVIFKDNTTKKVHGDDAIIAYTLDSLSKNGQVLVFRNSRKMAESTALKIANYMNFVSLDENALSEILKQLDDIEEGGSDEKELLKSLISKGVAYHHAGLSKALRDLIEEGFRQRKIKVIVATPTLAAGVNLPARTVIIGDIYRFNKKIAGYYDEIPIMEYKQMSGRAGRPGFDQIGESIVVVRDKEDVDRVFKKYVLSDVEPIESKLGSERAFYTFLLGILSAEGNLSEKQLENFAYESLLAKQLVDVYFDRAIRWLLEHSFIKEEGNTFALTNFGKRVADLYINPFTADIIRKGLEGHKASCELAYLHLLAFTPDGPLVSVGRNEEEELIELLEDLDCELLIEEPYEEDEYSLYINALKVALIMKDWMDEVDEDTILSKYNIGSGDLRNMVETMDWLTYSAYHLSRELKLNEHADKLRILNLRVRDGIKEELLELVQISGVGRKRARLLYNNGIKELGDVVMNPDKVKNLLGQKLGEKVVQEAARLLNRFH

T2: Hel308 K52A (Sulfolobus solfataricus PBL2025, UniProt D0KN27 8-715, K59A)
T2 sequence: T1 sequence with K52A

T3: Hel308 R662A (Sulfolobus solfataricus PBL2025, UniProt D0KN27 8-715, R669A)
T3 sequence: T1 sequence with R662A

T4: Hel308 R255A (Sulfolobus solfataricus PBL2025, UniProt D0KN27 8-715, R262A)
T4 sequence: T1 sequence with R255A

B1: 15T/15A duplex, 5'-fluorescein on 15T (dsDNA)
DNA 1: TTTTTTTTTTTTTTT
DNA 2: AAAAAAAAAAAAAAA

What was measured:
[1] = target: T1, Hel308 (ssHel308) wild type; test: fluorescence anisotropy
Hel308 K52A = target: T2, Hel308 K52A; test: fluorescence anisotropy
Hel308 R662A = target: T3, Hel308 R662A; test: fluorescence anisotropy
Hel308 R255A = target: T4, Hel308 R255A; test: fluorescence anisotropy
[2] = target: T1, Hel308 (ssHel308) wild type; test: competition

Binder | Kd [1] [nM] | binding result (Hel308 K52A) | binding result (Hel308 R662A) | binding signal (Hel308 R255A) | Kd [2] [nM]
B1 | 5300 | – | – | – | –
TTTTTTTTTTTTTTT (ssDNA) [15T ssDNA, 5'-fluorescein] | 140 | binds | binds | 25 fold increase in Kd vs wild type | –
TTTTTTTTTTTTTTT (ssDNA) [15T ssDNA, unlabelled competitor] | – | – | – | – | 130
